Substitutions are numbered along the chain they refer to.
B1: 3C3 PR3 (designed binder)
chain: EVVAATPTSLLISWRHPHFPTRYYRITYGETGGNSPVQEFTVPLQPPTATISGLKPGVDYTITVYAVTMEQNGHELFTPISINYRT
B2: 3′F1 PR4 (designed binder)
chain: B1 chain with M69V, E70A, N72D, E75F, F77Y
B3: 3′G3 PR4 (designed binder)
chain: B1 chain with M69F, E70D, N72S, G73D, F77L
B4: 3′D2 PR4 (designed binder)
chain: B1 chain with M69V, Q71S, E75A, T78V
B5: 3′G10 PR4 (designed binder)
chain: B1 chain with M69L, E70T, Q71H, G73D, F77L
B6: 3F8 PR3 (designed binder)
chain: B1 chain with M69V, E70A, F77K
B7: 3′G1 PR4 (designed binder)
chain: B1 chain with M69L, E70A, Q71L
B8: 3′F12 PR4 (designed binder)
chain: B1 chain with M69L, E70S, N72T, G73D, F77L
B9: 3′E5 PR4 (designed binder)
chain: B1 chain with M69V, E70A, Q71W, N72D, H74R
B10: 3′A7 PR4 (designed binder)
chain: B1 chain with M69L, E70S, Q71D, N72S, E75A
B11: 3C7 PR3 (designed binder)
chain: B1 chain with M69R, E70G, Q71L, G73D, H74G, F77L
B12: 3′A6 PR4 (designed binder)
chain: B1 chain with M69L, E70A, F77L
B13: 3′E1 PR4 (designed binder)
chain: B1 chain with M69V, E70A, Q71P
B14: 3′B11 PR4 (designed binder)
chain: B1 chain with M69E, E70T, Q71W, G73D, L76I, F77R
B15: 3G2 PR3 (designed binder)
chain: B1 chain with M69F, E70G, Q71P, N72S, G73D, E75V, F77L
B16: 3′E11 PR4 (designed binder)
chain: B1 chain with M69V, E70G, Q71P, N72H, G73D, H74R, F77L
B17: 3′B12 PR4 (designed binder)
chain: B1 chain with M69V, E70A, Q71H, N72E, G73N, H74R, F77L
B18: 3′B10 PR4 (designed binder)
chain: B1 chain with M69L, E70A, N72T, H74R, F77L
B19: 3D12 PR3 (designed binder)
chain: B1 chain with M69L, E70G, G73D, H74R, E75Q, F77L, T78V
B20: 3′C3 PR4 (designed binder)
chain: B1 chain with E70A, E75A
B21: 3′A9 PR4 (designed binder)
chain: B1 chain with M69L, E70A, Q71H, G73D, H74R, F77L
B22: 3′C12 PR4 (designed binder)
chain: B1 chain with M69I, E70G, Q71P, G73N, F77L
B23: 3′B1 PR4 (designed binder)
chain: B1 chain with M69E, E70A, Q71R, H74R, F77L
B24: 3′E10 PR4 (designed binder)
chain: B1 chain with M69A, E70G, Q71H, N72K, G73D, H74Q, F77L
B25: 3′C8 PR4 (designed binder)
chain: B1 chain with M69E, E70G, Q71L, G73D, F77M, T78I
B26: 3′F9 PR4 (designed binder)
chain: B1 chain with M69L, E70G, Q71P, G73D, H74R, F77M
B27: 3′B2 PR4 (designed binder)
chain: B1 chain with M69V, E70G, Q71R, G73D, H74R, F77L
B28: 3′A8 PR4 (designed binder)
chain: B1 chain with M69V, E70A, Q71W, N72D, G73D, F77L
B29: 3′F6 PR4 (designed binder)
chain: B1 chain with M69I, N72S, H74L, E75Q, F77M
B30: 3′C5 PR4 (designed binder)
chain: B1 chain with M69D, E70A, Q71M, N72Y, H74R, F77M
B31: 3′D3 PR4 (designed binder)
chain: B1 chain with M69P, E70G, Q71P, N72G, G73D, H74R, F77I
B32: 3′D9 PR4 (designed binder)
chain: B1 chain with M69G, E70Y, Q71Y, G73D, H74R, F77L
B33: 3′F3 PR4 (designed binder)
chain: B1 chain with M69L, E70G, Q71H, G73D, H74R, F77L
B34: 3′E3 PR4 (designed binder)
chain: B1 chain with E70A, N72Y, H74R, F77L
B35: 3′B4 PR4 (designed binder)
chain: B1 chain with M69V, E70A, Q71W, F77M
B36: 3′G2 PR4 (designed binder)
chain: B1 chain with M69L, E70A, F77I
B37: 3F10 PR3 (designed binder)
chain: B1 chain with M69L, E70A, N72D, G73D, F77L
B38: 3′D8 PR4 (designed binder)
chain: B1 chain with M69A, E70G, Q71P, G73D, E75Q
B39: 3′G7 PR4 (designed binder)
chain: B1 chain with M69E, E70G, G73D, H74Q, E75L, T78I
B40: 3′E9 PR4 (designed binder)
chain: B1 chain with M69V, N72D, E75V, F77Y, T78I
B41: 3′F2 PR4 (designed binder)
chain: B1 chain with M69L, E70G, Q71K, G73D, F77L
B42: 3C9 PR3 (designed binder)
chain: B1 chain with M69L, E70V, Q71R, G73D, F77L
B43: 3′B8 PR4 (designed binder)
chain: B1 chain with M69L, E70G, Q71Y, N72H, G73D, E75A

Target: T1, human vascular endothelial growth factor receptor-2 Fc chimera (KDR-Fc) (human, UniProt P35968 20-764)
T1 construct: range 1-764; also called human VEGFR-2; not shown: human IgG1 Fc
Experiment: radioactive equilibrium binding, 1 nM KDR-Fc, % of input
Procedure: To prepare ³⁵S-labeled binding proteins for analysis, mRNA was prepared as described above for RNA-protein fusion production but the linker ligation step was omitted. The mRNA was expressed using rabbit reticulocyte lysate translation kit (Ambion) in the presence of ³⁵S-labeled Met at 30° C. for 1 hour. Expressed protein was purified on M2-agarose Flag beads (Sigma) as described above. This procedure produced the encoded protein without the nucleic acid tail. In a direct binding assay, VEGF-R2-Fc fusions in concentrations ranging from 0 to 200 nM were added to a constant concentration of the purified protein (0.2 or 0.5 nM) and incubated at 30° C. for 1 hour in buffer B. The receptor-binder complexes were captured using Protein A magnetic beads for another 10 minutes at room temperature using a Kingfisher™ The beads were washed with six reaction volumes of buffer B. The protein was eluted from the beads with 100 μL of 0.1 M KOH. 50 μL of the reaction mixture and elution were dried onto a LumaPlate-96 (Packard) and the amount of ³⁵S on the plate was measured using a TopCount NXT instrument (Packard). The amount of fibronectin-based scaffold protein bound to the target was estimated as a percent of radioactivity eluted from Protein A magnetic beads compare to radioactivity in the reaction mixture. Nonspecific binding of fibronectin-based scaffold proteins to the beads was determined by measuring binding in the absence of KDR-Fc and represented less than 1-2% of the input. Specific binding was obtained through subtraction of nonspecific binding from total binding. Data was analyzed using the GraphPad Prizm software (GraphPad Software, Inc, San Diego, Calif.), fitted using a one site, non-linear binding equation.

T1 sequence (P35968 20-764 limits assumed, change not shown, form in doubt): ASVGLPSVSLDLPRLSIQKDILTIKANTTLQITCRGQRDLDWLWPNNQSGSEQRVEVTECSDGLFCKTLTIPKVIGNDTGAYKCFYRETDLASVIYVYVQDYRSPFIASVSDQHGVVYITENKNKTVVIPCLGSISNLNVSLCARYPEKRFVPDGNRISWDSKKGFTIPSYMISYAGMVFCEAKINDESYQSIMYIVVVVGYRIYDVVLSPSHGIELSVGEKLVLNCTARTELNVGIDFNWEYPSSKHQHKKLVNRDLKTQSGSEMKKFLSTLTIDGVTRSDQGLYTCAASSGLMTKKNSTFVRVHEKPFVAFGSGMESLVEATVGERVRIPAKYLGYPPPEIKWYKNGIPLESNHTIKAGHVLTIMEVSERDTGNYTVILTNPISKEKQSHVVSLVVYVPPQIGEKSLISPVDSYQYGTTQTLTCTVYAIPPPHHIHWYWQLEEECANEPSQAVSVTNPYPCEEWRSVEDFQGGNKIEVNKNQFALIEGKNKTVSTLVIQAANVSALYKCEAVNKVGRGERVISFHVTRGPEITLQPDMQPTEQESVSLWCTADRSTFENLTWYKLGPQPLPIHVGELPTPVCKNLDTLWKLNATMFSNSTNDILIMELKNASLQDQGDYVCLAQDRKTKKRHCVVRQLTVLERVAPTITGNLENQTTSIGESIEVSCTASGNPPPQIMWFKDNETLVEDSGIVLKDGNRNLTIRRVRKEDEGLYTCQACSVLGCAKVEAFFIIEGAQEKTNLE

Binding to 1 nM KDR, %	Binder
17%	B1
31%	B2
31%	B3
19%	B4
30%	B5
17%	B6
19%	B7
17%	B8
23%	B9
34%	B10
20%	B11
19%	B12
32%	B13
23%	B14
20%	B15
17%	B16
28%	B17
21%	B18
24%	B19
32%	B20
25%	B21
33%	B22

Binding to 1 nM KDR, %	Binder
25%	B23
21%	B24
19%	B25
18%	B26
29%	B27
27%	B28
24%	B29
27%	B30
42%	B31
30%	B32
37%	B33
41%	B34
38%	B35
15%	B36
16%	B37
27%	B38
19%	B39
44%	B40
29%	B41
16%	B42
14%	B43
